We go through 11 molecules from patent US20250346630A1, “Engineering Peptides Using Peptide Epitope Linker Evolution” (AGENCY FOR SCIENCE, TECHNOLOGY AND RESEARCH, priority 2022, published 2025).

The target in one experiment is T1, eIF4E cap-binding site (Homo sapiens, UniProt P06730).
T1 construct: pET11d expression plasmid containing the full-length eIF4E clone; made in house; host or cells: E. coli Rosetta pLysS
Kind of experiment: m^7GTP^FAM competitive fluorescence anisotropy assay. The settings on record: read-out: Competitive Anisotropy (kd, nM) m^7GTP^FAM, non-reducing conditions, 1:1 binding model, triplicate, Kds > 20,000 denoted non-binders.

The target in experiment [1] is T2, eIF4E eIF4G interaction site (eIF4E:4G interface) (Homo sapiens, UniProt P06730).
T2 construct: pET11d expression plasmid containing the full-length eIF4E clone; made in house; host or cells: E. coli Rosetta pLysS
Kind of experiment: eIF4G^FAM tracer peptide competitive fluorescence anisotropy assay. The settings on record: non-reducing conditions, 1:1 binding model, triplicate, Kds > 20,000 denoted non-binders, read-out: Competitive Anisotropy (kd, nM) eIF4AG^FAM. (In general: Polarisation of emitted light reports the rotation of a fluorescent probe.)

For experiment [2], the target named is T3, LgBiT-eIF4E:SmBiT-VH-DIF^CAP-01 interaction (eIF4E cap-binding site) (Homo sapiens, UniProt P06730).
T3 construct: expressed in transfected cells; host or cells: HEK293
Kind of experiment: NanoBIT^CAP complementation assay in HEK293 cells. The class given is cell-based. The conditions noted are these: HEK293 cells permeabilized with sub-CMC digitonin; read-out: IC50 for disruption of LgBiT-eIF4E with SmBiT-VH-DIF^CAP-01 interaction.

Another experiment concerns the target T4, PCNA (Homo sapiens, UniProt P12004).
T4 construct: endogenous in cells; host or cells: HEK293
Briefly: Anti-FLAG immunoprecipitation pull down with PCNA. The class given is cell-based. The settings on record: HEK293 cells. The procedure:
Twenty-four hours prior to transfection or drugging, cells were seeded at a cell density of 1000.000 (HEK293) cells per well of a six-well plate (ThermoFisher Scientific). Transfections were performed using Lipofectamine 3000 (ThermoFisher Scientific) with either 2 μg or the indicated amount of plasmid vectors per well according to the manufacturer's instructions. After a 48-hour incubation period, the cell media was then removed and the cells washed with PBS saline. Cells were directly lysed in the wells with 300 μl of lysis buffer containing 20 mM Hepes pH 7.4, 100 mM NaCl, 5 mM MgCl2, 0.5% NP-40, 1 mM DTT, with protease (Roche) and phosphatase (Sigma-Aldrich) inhibitor cocktail sets added as outlined by the manufacturer's protocols. […] Beads were then washed four times with lysis buffer containing no protease or phosphatase inhibitors. This was then followed by the addition of Laemlee buffer (2×) and the beads boiled for 5 min at 95° C. Samples were centrifuged and the supernatant removed for western blot analysis.
Confluent HEK293FT cells were used to generate lentivirus for infection of target cells. Packaging cells were transfected using calcium phosphate transfection as described below. […]
Samples were resolved on midi or mini Tris-Glycine 4-20% gradient gels (Bio-Rad) according to the manufacturer's protocol. […] B-actin levels were measured to ensure equal loading.

In a further experiment the target is T5, eIF4E (Homo sapiens, UniProt P06730).
T5 construct: pET11d expression plasmid containing the full-length eIF4E clone; made in house; host or cells: E. coli Rosetta pLysS
Briefly: Direct fluorescence anisotropy titration of eIF4E against labelled tracers. The settings on record: 50 nM tracer, 1:1 binding model.

The target in experiment [3] is T6, full-length human eIF4E (human, UniProt P06730 2-217).
T6 construct: mature; Used here for the purified full-length protein (anisotropy, ITC, crystals) and for endogenous eIF4E of HEK293 cells in pull-downs; also called cellular eIF4E
Kind of experiment: anti-FLAG immunoprecipitation from transfected HEK293 cells, western blot. Background: In western blotting, separated proteins are transferred to a membrane and probed.

Experiment [4] has as its target T7, proliferating cell nuclear antigen (PCNA) (human, UniProt P12004 1-261).
T7 construct: Used here for the purified protein (anisotropy) and for endogenous PCNA of HEK293 and A375 cells in anti-FLAG pull-downs
The description is as above.

A further experiment deals with T8, LgBiT-eIF4E (UniProt P06730 1-217).
T8 construct: Expressed in HEK293 cells; also called LgBiT fused eIF4E; not shown: LgBiT (18-kDa NanoLuc fragment, Promega NanoBit)
Briefly: NanoBit split-luciferase complementation in co-transfected HEK293 cells [CONT.) B].

For experiment [5], the target named is T6, full-length human eIF4E. Briefly: competitive fluorescence anisotropy, displacement of m7GTP^FAM from eIF4E.
A further experiment addresses T9, GST-tagged eIF4E (UniProt P06730 1-217).
T9 construct: also called GST-eIF4E; not shown: glutathione S-transferase tag of pGEX-6P1
Kind of experiment: GST pull-down on glutathione beads with GST-eIF4E, Coomassie stained SDS-PAGE.

The Kd is the free concentration of one partner at which half of the binding sites on the other are occupied at equilibrium, for simple one-to-one binding. What is called IC50 is the concentration that gives 50% inhibition.

Residue numbers refer to the chain shown, from its start. Names and notes keep the numbering of the source. Where only a bound is given, the exact number is not on record here.

For the molecule `Cn1c[n+]([C@@H]2O[C@H](COP(=O)(O)OP(=O)([O-])O)[C@@H](O)[C@H]2O)c2nc(N)[nH]c(=O)c21` [m^7GDP], the results for the Kd (at eIF4E cap-binding site; in experiment [1]) were 201 ± 25.2 nM and over 20000 nM, respectively. The IC50 in experiment [2] amounted to 34500 nM.

For YVRPRLPHMSQFES [scrambled], the “anti-FLAG pull down in complex with PCNA” value in the experiment with PCNA is “do not”.

In the case of m^7GTP^5-FAM [m^7GTP^FAM], the affinity on eIF4E, expressed as Kd, was 149 nM.

As for m^7GTP^BIOTIN, the figures for the Kd (at eIF4E cap-binding site; in experiment [1]) were 34.7 ± 4 nM and over 20000 nM, respectively.

B1: VH-S4 (expressed in HEK293 cells) (designed binder)
VH: MSEVQLVESGGGLVQPGGSLRLSSAISGFSISSTSIDWVRQAPGKGLEWVARISPSSGSTSYADSVKGRFTISADTSKNTVYLQMNSLRAEDTAVYYTGRVAKALNSRSPSFVVNTYSSIGFDYRGQGTLVTVSSGAA
For the molecule B1, in the experiment with full-length human eIF4E [3], the binding result is “binds”.

B2: negative control M4 (FLAG-tagged, expressed in HEK293 cells) (designed binder)
VH: B1 VH with R108S, I120F
notes: not shown: C-terminal 3x FLAG tag of the pCDNA3.1 vector
As for B2, the “anti-FLAG pull down in complex with PCNA” value with PCNA is listed as “do not”. In addition, the binding result in [4] was “no binding”.

B3: FLAG-tagged VH-DIF^CAP-01 MA (M104A) (expressed in HEK293 cells) (designed binder)
VH: MSEVQLVESGGGLVQPGGSLRLSSAISGFSISSTSIDWVRQAPGKGLEWVARISPSSGSTSYADSVKGRFTISADTSKNTVYLQMNSLRAEDTAVYYTGRPLPEAGFFTNIPAMVDYRGQGTLVTVSSGAA
notes: also called VH-DIF^CAP-01 mutant (M104A); VH-DIF^CAP-Cntrl; not shown: C-terminal 3x FLAG tag of the pCDNA3.1 vector
Consider B3, for which, in the experiment with full-length human eIF4E [3], the binding result is listed as “no binding”.

B4: SmBiT-VH-DIF^CAP-01 E103A (designed binder)
VH: B3 VH with E104A, A105M
notes: also called VH-DIF^CAP-01 EA fused to smBIT; not shown: SmBiT (11-amino-acid NanoLuc fragment)
As to B4, in the experiment with LgBiT-eIF4E, the binding result is on record as “no binding”.

B5: SmBiT-VH-DIF^CAP-01 M104A (designed binder)
VH: B3 VH
notes: also called VH-DIF^CAP-01 MA fused to smBIT; not shown: SmBiT (11-amino-acid NanoLuc fragment)
As for B5, in the experiment with LgBiT-eIF4E, the binding result was “no binding”.

B6: VH-DiF^CAP-01^Cntrl (purified, His-tagged) (designed binder)
VH: B3 VH
notes: also called VH-DIF^CAP-01 MA (M104A); not shown: C-terminal six-histidine tag from pET-22b(+)
For B6, in the experiment with full-length human eIF4E [5], the binding result is listed as “no binding”.

B7: VH-1C5^Scrambled (designed binder)
VH domain, His-tagged, purified: MSEVQLVESGGGLVQPGGSLRLSSAISGFSISSTSIDWVRQAPGKGLEWVARISPSSGSTSYADSVKGRFTISADTSKNTVYLQMNSLRAEDTAVYYTGRGSVLSVAFKPSVDSFSSFYNTNDYRGQGTLVTVSSGAA
notes: CDR3 loop of VH-1C5 scrambled; also called scrambled VH domain (negative control)
For the molecule B7, the binding result with GST-tagged eIF4E was “no binding”.
